Results on one molecule are retold here after paper PMC6135800, “STAT3-coordinated migration facilitates the dissemination of diffuse large B-cell lymphomas” (Nature Communications, 2018).

The assay addresses T1, FLAG-RhoGDI-γ (immobilized) (UniProt Q99819 1-225).
T1 construct: RhoGDIγ, full-length cDNA NM_001176 inserted into pFLAG-CMV2
T1 sequence (looked up): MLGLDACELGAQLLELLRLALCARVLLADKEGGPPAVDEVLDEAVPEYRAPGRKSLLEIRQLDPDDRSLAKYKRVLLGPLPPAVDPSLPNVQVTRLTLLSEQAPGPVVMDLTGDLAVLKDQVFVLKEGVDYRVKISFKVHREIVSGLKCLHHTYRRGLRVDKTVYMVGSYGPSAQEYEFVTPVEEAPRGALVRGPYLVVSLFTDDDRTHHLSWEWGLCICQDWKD
Put plainly: pull-down; competition assay: purified GST-RhoH and RhoA incubated with immobilized FLAG-RhoGDI-γ for 2 h; increasing doses of RhoH. Particulars: both partners purified.

B1: GST-RhoH (natural protein, UniProt Q15669 1-191, looked up)
chain: MLSSIKCVLVGDSAVGKTSLLVRFTSETFPEAYKPTVYENTGVDVFMDGIQISLGLWDTAGNDAFRSIRPLSYQQADVVLMCYSVANHNSFLNLKNKWIGEIRSNLPCTPVLVVATQTDQREMGPHRASCVNAMEGKKLAQDVRAKGYLECSALSNRGVQQVFECAVRTAVNQARRRNRRRLFSINECKIF
notes: RhoH; the only GST vector named is pEBG-RhoH, made by inserting full-length cDNAs (RhoH: NM_001278369); also called GST-tagged RhoH; source: E. coli DH5α, IPTG induction, purified (glutathione-Sepharose, eluted with reduced glutathione)
With B1, the binding result was “binds”.
